Sequences and labels used below:
B1: major capsid protein (MCP) of human herpesvirus 6B (natural protein)
chain: MENWQATEILPKIEAPLNIFNDIKTYTAEQLFDNLRIYFGDDPSRYNISFEALLGIYCNKIEWINFFTTPIAVAANVIRFNDVSRMTLGKVLFFIQLPRVATGNDVTAPKETTIMVAKHSEKHPINISFDLSAACLEHLENTFKNTVIDQILNINALHTVLRSLKNSADSLERGLIHAFMQTLLRKSPPQFIVLTMNENKVHNKQALSRVQRSNMFQSLKNRLLTSLFFLNRNNNSSYIYRILNDMMESVTESILNDTNNYTSKENIPLDGVLLGPIGSIQKLTNILSQYISTQVVSAPISYGHFIMGKENAVTAIAYRAIMADFTQFTVNAGTEQQDTNNKSEIFDKSRAYADLKLNTLKLGDKLVAFDHLHKVYKNTDVNDPLEQSLQLTFFFPLGIYIPTETGFSTMETRVKLNDTMENNLPTSVFFHNKDQVVQRIDFADILPSVCHPIVHDSTIVERLMKNEPLPTGHRFSQLCQLKITRENPTRILQTLYNLYESRQEVPKNTNVLKNELNVEDFYKPDNPTLPTERHPFFDLTYIQKNRATEVLCTPRIMIGNMPLPLAPISFHEARTNQMLEHAKTNSHNYDFTLKIVTESLTSGSYPELAYVIEILVHGNKHAFMILKQVISQCISYWFNMKHILLFCNSFEMIMLISNHMGDELIPGAAFAHYRNLVSLIRLVKRTISISNINEQLCGEPLVNFANALFDGRLFCPFVHTMPRNDTNAKITADDTPLTQNTVRVRNYEISDVQRMNLIDSSVVFTDNDRPSNENTILSKIFYFCVLPALSNNKACGAGVNVKELVLDLFYTEPFICPDDCFQENPISSDVLMSLIREAMGPGYTVANTSSIAKQLFKSLIYINENTKILEVEVSLDPAQRHGNSVHFQSLQHILYNGLCLISPITTLRRYYQPIPFHRFFSDPGICGTMNADIQVFLNTFPHYQRNDGGFPLPPPLALEFYNWQRTPFSVYSAFCPNSLLSIMTLAAMHSKLSPVAIAIQSKSKIHPGFAATLVRTDNFDVECLLYSSRAATSIILDDPTVTAEAKDIVTTYNFTQHLSFVDMGLGFSSTTATANLKRIKSDMGSKIQNLFSAFPIHAFTNTDINTWIRHHVGIEKPNPSEGEALNIITFGGINKNPPSILLHGQQAICEVILTPVTTNINFFKLPHNPRGRESCMMGTDPHNEEAARKALYDHTQTDSDTFAATTNPWASLPGSLGDILYNTAHREQLCYNPKTYSPNAQFFTESDILKTNKMMYKVINEYCMKSNSCLNSDSEIQYSCSEGTDSFVSRPCQFLQNALPLHCSSNQALLESRSKTGNTQISETHYCNYAIGETIPLQLIIESSI
notes: major capsid protein (MCP) of human herpesvirus 6B, strain Z29; 1345 amino acids long; domains described over a.a; 1-1345; Native protein in the virion capsid; 16 conformers (15 hexon, 1 penton) modelled in each asymmetric unit; also called penton MCP; hexon MCP
B2: triplex dimer protein (Tri2) of human herpesvirus 6B (natural protein)
chain: METVYCTFDHKLSLSDISTLCKLMNIVIPIPAHHHLIGSGNLGLYPIVSSNKDYVHIRNVLRTMVVTILQKVEGNQLVLRKPMTGQQYAIKNTGPFPWEKGDTLTLIPPLSTHSEEKLLKLGDWELTVPLVVPTAIAAEINIRLLCIGLIAVHREYNEMQTIIDELCSIQYRDVLIKLPDIVNDKQSMYSMKTACISLSMITAMAPDIVRTYIDRLTLEDHSMLLIKCQELLSKRTTLSTQRCGQLHATDIKDELKKIKSVLTMIDQINSLTNEKTYFVVCDVSADNRMATCIYKN
notes: triplex dimer protein (Tri2) of human herpesvirus 6B, strain Z29; domains clamp (a.a. 1-86), trunk (a.a. 87-181 and 276-296), embracing arm (a.a. 182-275); Native protein in the virion capsid; two conformers (Tri2A, Tri2B) of the same protein in each triplex; also called Tri2A; Tri2B
B3: tegument protein pU11 of human herpesvirus 6B (natural protein)
chain: MDLKAQSIPFAWLDRDKVQRLTNFLSNLENLENVDLREHPYVTNSCVVREGEDVDELKTLYNTFILWLMYHYVLSKRKPDYNAIWQDITKLQNVVNEYLKSKGLNKGNFENMFTNKEKFESQFSDIHRALLRLGNSIRWGSNVPIDTPYVNLTAEDSSEIENNLQDAEKNMLWYTVYNINDPWDENGYLVTSINKLVYLGKLFVTLNQSWSKLEKVAMSQIVTTQNHLSGHLRKNENFNAVYSQRVLQTPLTGQRVESFLKIITSDYEIIKSSLESYSASKAFSVPENGPHSLMDFASLDGRMPSDLSLPSISIDTKRPSADLARLKISQPKSLDAPLKTQRRHKFPESDSVDNAGGKILIKKETLGGRDVRATTPVSSVSLMSGVEPLSSLTSTNLDLRDKSHGNYRIGPSGILDFGVKLPAEAQSNTGDVDLLQDKTSIRSPSSGITDVVNGLANLNLRQNKSDVSRPWSKNTAANADVFDPVHRLVSEQTGTPFVLNNSDVAGSEAKLTTHSTETGVSPHNVSLIKDLRDKDGFRKQKKLDLLGSWTKEKNDKAIVHSREVTGDSGDATETVTARDSPVLRKTKHANDIFAGLNKKYARDVSRGGKGNSRDLYSGGNAEKKETSGKFNVDKEMTQNEQEPLPNLMEAARNAGEEQYVQAGLGQRVNKILAEFTNLISLGEKGIQDILHNQSGTELKLPTENKLGRESEEANVERILEVSDPQNLFKNFKLQNDLDSVQSPFRLPNADLSRDLDSVSFKDALDVKLPGNGEREIDLALQKVKAGERETSDFKVGQDETLIPTQLMKVETPEEKDDVIEKMVLRIRQDGETDEETVPGPGVAESLGIAAKDKSVIAS
notes: tegument protein pU11 of human herpesvirus 6B, strain Z29; 858 a.a. long; wild-type full-length protein inside the virion, only a.a; 7-275 (pU11nt) are resolved and modelled; also called pU11nt (the resolved N-terminal one-third, a.a. 7-275); pU11nt-a-1
B4: smallest capsid protein (SCP) of human herpesvirus 6B, U32 gene product (natural protein)
chain: MTTIRGDDLSNQITQISGSSSKKEEEKKKQQMLTGVLGLQPTMANHPVLGVFLPKYAKQNGGNVDKTAFRLDLIRMLALHRLNTKTGSD
notes: smallest capsid protein (SCP), U32 gene product of human herpesvirus 6B, strain Z29; 89 residues long; the model covers residues 23-83, residues 1-22 are disordered; Native protein in the virion capsid; 16 conformers modelled in each asymmetric unit; also called penton SCP; hexon SCP

Data set [1] concerns the molecule itself. The experiment in a line: cryo-EM structure; in situ in HHV-6B (Z29) virions pelleted from SupT1 culture supernatant and resuspended in PBS; icosahedral reconstruction ~5.1 Å, sub-particle reconstructions at the fivefold, threefold and twofold axes at 3.82, 3.77 and 3.77 Å; atomic models of 59 conformers.
For data set [2], the target named is B1. The description is as above. As to conditions: partners not purified.

“And” between values parts separate entries of the source, which are not always exact repeats. Equal entries are not always repeated.

Turning to B1, the stoichiometry N (commonly a count of units in the complex or per binding partner) in data set [1] is 5 and 6. As to B2, the “stoichiometry N” value in data set [1] is 2. For the molecule B3, in data set [1], the “stoichiometry N” value came out at 4. Regarding B4, the “stoichiometry N” value in data set [2] was found to be 1.

The record behind these values is article PMC6877594, “Atomic structure of the human herpesvirus 6B capsid and capsid-associated tegument complexes” (Nature Communications, 2019).
